± gives the uncertainty stated by the source.
Test: protein stability index of a GFP-peptide fusion (yeast GPS) (PSI 1-4); higher = more stable; sorted into four equal gates, so the index is relative within each strain
Summary of the method: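 For each peptide, the protein stability index sums the read frequency in every gate after multiplying it by the gate number. Read frequencies came from plasmids that were PCR-amplified from each gate and Illumina-sequenced, with reads assigned to strains by barcodes. The gates were four equal bins of GFP/Cherry fluorescence ratio applied to mid-log yeast in leucine-free medium carrying a pooled library of tiled 17-residue yeast protein peptides fused downstream of GFP on a Cherry-expressing plasmid.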

| Sequence | protein stability index (doa10∆) | protein stability index (pdr5∆) | protein stability index (san1∆) | protein stability index (ubr1∆) |
| --- | --- | --- | --- | --- |
| QQRKQKKNRDKKIFGTG [RPS24A] | 3.17 ± 0.093 | 3.14 ± 0.055 | 3.25 ± 0.035 | 3.06 ± 0.067 |
| QQTAQTQLEQQRQLLVQ [SNF5] | 3.12 ± 0.12 | 3.15 ± 0.14 |  | 2.49 ± 0.072 |
| QQTEKLNPQVADINKNF [RPN2] | 1.91 ± 0.066 | 2.42 ± 0.058 | 2.44 ± 0.07 | 2.49 ± 0.055 |
| QRDAVTLFCCLLRSRLA [RPO21] | 1.78 ± 0.045 | 1.92 ± 0.044 | 1.85 ± 0.057 | 1.98 ± 0.041 |
| QRKKQIAFPQRKYAIKA [RPL35A] | 1.25 ± 0.059 | 1.51 ± 0.078 | 1.1 ± 0.17 | 1.23 ± 0.062 |
| QRKNGVTNSPLFQTIEK [ECM29] | 3.29 ± 0.16 | 3.1 ± 0.14 | 2.19 ± 0.28 | 3.11 ± 0.086 |
| QRSKKIQPTAKVVYIQR [DIS3] | 2.23 ± 0.27 | 2.56 ± 0.22 | 2.92 ± 0.17 |  |
| QRVFDETEQEYSPSNEI [YDL116W/NUP84] | 3.28 ± 0.067 | 3.46 ± 0.069 | 3.21 ± 0.058 | 3.29 ± 0.043 |
| QSDFCLSWCPSRFSPEK [YGL100W/SEH1] | 3.09 ± 0.11 | 3.02 ± 0.19 |  |  |
| QSGSNSGNNSKKRKNKS [ROX3] | 2.96 ± 0.17 | 3.09 ± 0.097 | 3.02 ± 0.095 | 3.15 ± 0.066 |
| QSISNENDVKPISIEAP [SWI3] | 2.55 ± 0.042 | 2.34 ± 0.044 | 2.42 ± 0.052 | 2.32 ± 0.037 |
| QSISQNSSSSTPNTNSN [SWI1] | 2.73 ± 0.055 | 2.8 ± 0.049 | 2.9 ± 0.051 | 2.82 ± 0.048 |
| QSKEILKGLLQELKADS [SRP72] | 2.36 ± 0.17 | 2.13 ± 0.27 | 2.75 ± 0.096 | 2.6 ± 0.11 |
| QSLANIQYVTYLLTQQQ [SOH1] | 2.23 ± 0.048 | 2.4 ± 0.045 | 2.19 ± 0.047 | 2.41 ± 0.033 |
| QSLELMIYDDAHEISQG [BRR2] | 2.73 ± 0.04 | 2.92 ± 0.037 | 2.86 ± 0.037 | 3.02 ± 0.035 |
| QSQPIANQSATSTPPPP [SNF5] | 2.82 ± 0.044 | 2.66 ± 0.037 | 2.61 ± 0.038 | 2.63 ± 0.034 |
| QSRRYNLRRHSDIVLDK [SIN4] | 3.07 ± 0.05 | 3.21 ± 0.034 | 3.131 ± 0.028 | 3.14 ± 0.035 |
| QTFEAKLHFKDTKPFLN [NUT1] | 2.4 ± 0.074 | 2.87 ± 0.12 | 2.62 ± 0.059 | 2.67 ± 0.043 |
| QTGTKPVLKKKAAFLGS [COR1] | 2.99 ± 0.064 | 3.14 ± 0.085 | 3.04 ± 0.076 | 3.16 ± 0.058 |
| QTHPDTGISQKSMSILN [HTB1] | 3.04 ± 0.056 | 3.01 ± 0.069 | 3.11 ± 0.06 | 2.72 ± 0.068 |
| QTQEFFLSSFDDVLQTI [YJL039C/NUP192] | 2.65 ± 0.046 | 2.27 ± 0.048 | 2.32 ± 0.047 | 2.51 ± 0.034 |
| QTSLVRMFEKNVMLNIY [SKI6] |  | 3.17 ± 0.11 | 3.29 ± 0.13 | 3.12 ± 0.076 |
| QVIFEIFEISLQRKDYT [YML103C/NUP188] | 2 ± 0.053 | 2.19 ± 0.056 | 2.51 ± 0.069 | 2.84 ± 0.061 |
| QVKVKGQLGEMAKCLDN [YCS4] | 3.25 ± 0.11 | 3.17 ± 0.13 | 3.19 ± 0.066 | 2.73 ± 0.076 |
| QVNGNIRKVSNDRESVL [SMC3] | 3.12 ± 0.15 | 1.88 ± 0.079 | 1.92 ± 0.083 | 2.18 ± 0.056 |

| Sequence | protein stability index (doa10∆) | protein stability index (pdr5∆) | protein stability index (san1∆) | protein stability index (ubr1∆) |
| --- | --- | --- | --- | --- |
| QVSKKLSSIEASLKIKN [SMC3] | 1.67 ± 0.069 | 1.7 ± 0.085 | 2.44 ± 0.12 | 2.27 ± 0.08 |
| QVVTDYNILGNLGIPKI [SSN2] | 2.51 ± 0.069 | 2.96 ± 0.072 | 2.37 ± 0.1 | 2.27 ± 0.06 |
| QWNKLTSFDIKREGRNE [POP6] | 3.31 ± 0.3 |  |  |  |
| QYDFKAVLEENDENDDE [RPN14] | 3.04 ± 0.11 | 3.24 ± 0.075 | 3.05 ± 0.076 | 2.89 ± 0.055 |
| QYGYSGSSAGMNGRSLT [SNF6] | 3.14 ± 0.07 | 3.11 ± 0.061 | 3.17 ± 0.046 | 3.1 ± 0.042 |
| QYNIPPEREVLVRELYQ [RRP6] | 2.52 ± 0.061 | 2.15 ± 0.089 | 2.37 ± 0.14 | 2.17 ± 0.083 |
| RAEAKAQGVAVQLKRQP [RPL21A] | 2.75 ± 0.096 | 2.19 ± 0.08 | 1.71 ± 0.12 | 2.46 ± 0.11 |
| RAGKYELVKSYSWLLFE [YJR042W/NUP85] | 1.62 ± 0.11 | 1.78 ± 0.08 | 1.18 ± 0.14 | 1.33 ± 0.062 |
| RAHRIGQKNEVRILRLI [SNF2] | 2.26 ± 0.048 | 1.79 ± 0.051 | 2.03 ± 0.058 | 2.23 ± 0.044 |
| RAKPVTNSSILLGKILP [RRP6] | 2.2 ± 0.074 | 2.14 ± 0.077 | 2.27 ± 0.12 | 2.39 ± 0.13 |
| RALYTPFLLMELHKKLV [YDL116W/NUP84] | 1.82 ± 0.094 | 1.45 ± 0.087 | 1.29 ± 0.22 | 1.26 ± 0.13 |
| RAPKVIHGQDFQFFPKE [ISW2] | 2.56 ± 0.068 | 2.47 ± 0.069 | 3.17 ± 0.065 | 2.83 ± 0.052 |
| RARVKAFPKDDRSKPVA [RPL3] | 2.85 ± 0.1 | 3.12 ± 0.1 | 3.4 ± 0.047 | 3.15 ± 0.083 |
| RAVFLFRCKETHSYNFM [RPC82] | 2.19 ± 0.058 | 2.02 ± 0.084 | 1.98 ± 0.091 | 2.47 ± 0.063 |
| RAVGGEVGASAALAPKI [RPL12A] | 3.37 ± 0.14 | 3.21 ± 0.17 | 1.86 ± 0.18 | 3.2 ± 0.1 |
| RAYLSHSNRCIVFSKKE [CSN12] | 1.41 ± 0.075 | 1.56 ± 0.062 | 1.13 ± 0.15 | 1.15 ± 0.036 |
| RCLVAVIQQDKYQKALH [SRP72] | 2.46 ± 0.2 | 2.23 ± 0.07 | 1.85 ± 0.1 | 2.09 ± 0.13 |
| RDDLFVRNLQGIQEVVH [NUT1] | 2.9 ± 0.09 | 3.2 ± 0.094 | 3.15 ± 0.073 | 3.23 ± 0.068 |
| RDLILKKGEYARFKSKD [SMC3] | 2.81 ± 0.17 | 2.72 ± 0.18 | 2.65 ± 0.21 | 2.77 ± 0.076 |
| REDLNKAEYVDQYDAER [RPO31] | 3.15 ± 0.1 | 3.11 ± 0.11 | 3.33 ± 0.092 | 3.34 ± 0.083 |
| REFLKVDQEMLYEIILA [SKP1] | 2.81 ± 0.066 | 2.85 ± 0.065 | 2.86 ± 0.096 | 2.96 ± 0.051 |
| REHERVILKQILQILDQ [SWP82] | 2.83 ± 0.077 | 2.86 ± 0.066 | 2.84 ± 0.063 | 2.8 ± 0.046 |
| REHFEKTVAVDSVFEQN [RPL3] | 2.94 ± 0.12 | 2.93 ± 0.18 | 2.12 ± 0.12 | 2.37 ± 0.12 |
| REIVMPAHTKYMLIEEA [ITC1] | 3.2 ± 0.1 | 3.42 ± 0.1 | 3.03 ± 0.071 | 3.31 ± 0.13 |
| RELYKYVRKHDPLNSNI [PRP28] | 2.96 ± 0.083 | 2.86 ± 0.082 | 2.96 ± 0.05 | 3.16 ± 0.09 |
